This assay concerns the target Human recombinant His6-tagged Hsp70 (human, UniProt P0DMV8 1-641). Put plainly: pull-down.

Chain of Human recombinant His6-tagged Hsp70 (P0DMV8 whole entry): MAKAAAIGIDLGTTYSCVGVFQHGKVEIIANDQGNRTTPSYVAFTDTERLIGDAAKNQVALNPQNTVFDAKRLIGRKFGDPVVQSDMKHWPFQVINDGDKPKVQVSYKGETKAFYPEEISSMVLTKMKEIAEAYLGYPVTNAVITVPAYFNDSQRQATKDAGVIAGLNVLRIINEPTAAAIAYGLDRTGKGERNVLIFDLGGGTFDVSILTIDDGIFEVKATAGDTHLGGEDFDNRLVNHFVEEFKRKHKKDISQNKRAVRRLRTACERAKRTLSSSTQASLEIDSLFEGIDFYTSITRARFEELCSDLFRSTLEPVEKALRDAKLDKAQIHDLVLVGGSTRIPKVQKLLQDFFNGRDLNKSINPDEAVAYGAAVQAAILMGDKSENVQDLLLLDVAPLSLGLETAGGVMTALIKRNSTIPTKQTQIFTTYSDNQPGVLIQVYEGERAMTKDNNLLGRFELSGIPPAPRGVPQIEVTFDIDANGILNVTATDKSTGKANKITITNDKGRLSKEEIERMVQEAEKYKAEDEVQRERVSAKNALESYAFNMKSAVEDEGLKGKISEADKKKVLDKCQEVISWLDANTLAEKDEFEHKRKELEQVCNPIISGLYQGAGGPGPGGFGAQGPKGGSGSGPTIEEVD

GCEVFGLGWRSYKH [Peptide C]: the “ka (saturation of the effect of peptide C on binding of Hsp70-ADP to GST-CD40)” value is roughly 30 µM.

Values taken from publication PMC2173242 (The Journal of Cell Biology, 2002).
